Experimental data reported in PMC10279920, “Single-molecule visualization of Pif1 helicase translocation on single-stranded DNA” (The Journal of Biological Chemistry, 2023).

Legend:
Assay in all cases: EMSA; no ATP, 5 mM Mg2+; 35 mM Tris-HCl pH 7.5, 1 mM DTT, 5 mM MgCl2, 60 mM KCl, 0.1 mg/ml BSA, no ATP, 30 min at 30 C; 5 nM ssDNA
Conditions in all cases: protein: recombinant; tags: N-terminal superfolder GFP; Ni-NTA purified; label: 5' Alexa647
GFP-Pif1 E724A = target: T1, GFP-Pif1 E724A (Saccharomyces cerevisiae, UniProt P07271 40-859, E724A)
T1 sequence: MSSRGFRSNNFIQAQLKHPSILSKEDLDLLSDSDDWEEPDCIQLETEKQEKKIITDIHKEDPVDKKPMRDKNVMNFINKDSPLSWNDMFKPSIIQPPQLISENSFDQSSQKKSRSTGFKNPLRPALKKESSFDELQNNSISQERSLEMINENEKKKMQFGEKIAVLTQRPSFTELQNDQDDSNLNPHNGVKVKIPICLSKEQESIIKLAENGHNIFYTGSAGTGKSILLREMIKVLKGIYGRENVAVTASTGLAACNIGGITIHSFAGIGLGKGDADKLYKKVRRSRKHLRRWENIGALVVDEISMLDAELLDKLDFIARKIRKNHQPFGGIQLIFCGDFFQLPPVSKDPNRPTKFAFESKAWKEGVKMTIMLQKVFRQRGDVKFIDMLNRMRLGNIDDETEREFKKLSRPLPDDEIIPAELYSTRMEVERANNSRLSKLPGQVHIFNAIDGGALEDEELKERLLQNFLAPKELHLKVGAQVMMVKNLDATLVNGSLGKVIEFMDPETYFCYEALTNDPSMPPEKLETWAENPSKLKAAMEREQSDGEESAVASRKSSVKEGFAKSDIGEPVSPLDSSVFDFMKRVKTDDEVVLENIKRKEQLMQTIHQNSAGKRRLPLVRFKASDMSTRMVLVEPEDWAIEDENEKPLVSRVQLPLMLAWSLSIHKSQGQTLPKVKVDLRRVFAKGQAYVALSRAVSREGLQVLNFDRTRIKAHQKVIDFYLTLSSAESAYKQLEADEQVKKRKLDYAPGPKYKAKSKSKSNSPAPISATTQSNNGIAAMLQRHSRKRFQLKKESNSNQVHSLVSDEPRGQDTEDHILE

GFP-Pif1 L310A = target: T2, GFP-Pif1 L310A (Saccharomyces cerevisiae, UniProt P07271 40-859, L310A)
T2 sequence: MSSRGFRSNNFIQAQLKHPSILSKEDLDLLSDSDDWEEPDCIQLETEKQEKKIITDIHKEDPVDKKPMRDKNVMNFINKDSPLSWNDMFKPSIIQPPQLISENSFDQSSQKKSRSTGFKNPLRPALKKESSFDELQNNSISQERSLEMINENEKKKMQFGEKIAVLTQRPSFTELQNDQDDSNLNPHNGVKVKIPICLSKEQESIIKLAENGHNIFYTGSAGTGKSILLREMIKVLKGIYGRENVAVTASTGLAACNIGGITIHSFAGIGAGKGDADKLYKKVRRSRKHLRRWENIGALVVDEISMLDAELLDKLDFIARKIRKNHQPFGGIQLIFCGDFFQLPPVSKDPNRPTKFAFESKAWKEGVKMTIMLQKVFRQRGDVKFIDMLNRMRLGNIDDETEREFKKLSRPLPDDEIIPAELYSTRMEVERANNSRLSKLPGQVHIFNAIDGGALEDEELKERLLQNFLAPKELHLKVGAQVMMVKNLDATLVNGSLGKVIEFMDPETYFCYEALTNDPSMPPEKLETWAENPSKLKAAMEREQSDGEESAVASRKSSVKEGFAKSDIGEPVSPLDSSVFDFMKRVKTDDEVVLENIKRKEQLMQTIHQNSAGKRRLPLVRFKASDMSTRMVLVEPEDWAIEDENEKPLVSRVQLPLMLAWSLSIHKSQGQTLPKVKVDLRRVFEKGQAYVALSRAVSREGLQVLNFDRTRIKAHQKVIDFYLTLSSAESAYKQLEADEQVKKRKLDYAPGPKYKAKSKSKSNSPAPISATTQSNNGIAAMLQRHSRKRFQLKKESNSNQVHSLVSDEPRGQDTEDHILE

Pif1 WT (GFP-Pif1) = target: T3, Pif1 WT (GFP-Pif1) (Saccharomyces cerevisiae, UniProt P07271 40-859)
T3 sequence: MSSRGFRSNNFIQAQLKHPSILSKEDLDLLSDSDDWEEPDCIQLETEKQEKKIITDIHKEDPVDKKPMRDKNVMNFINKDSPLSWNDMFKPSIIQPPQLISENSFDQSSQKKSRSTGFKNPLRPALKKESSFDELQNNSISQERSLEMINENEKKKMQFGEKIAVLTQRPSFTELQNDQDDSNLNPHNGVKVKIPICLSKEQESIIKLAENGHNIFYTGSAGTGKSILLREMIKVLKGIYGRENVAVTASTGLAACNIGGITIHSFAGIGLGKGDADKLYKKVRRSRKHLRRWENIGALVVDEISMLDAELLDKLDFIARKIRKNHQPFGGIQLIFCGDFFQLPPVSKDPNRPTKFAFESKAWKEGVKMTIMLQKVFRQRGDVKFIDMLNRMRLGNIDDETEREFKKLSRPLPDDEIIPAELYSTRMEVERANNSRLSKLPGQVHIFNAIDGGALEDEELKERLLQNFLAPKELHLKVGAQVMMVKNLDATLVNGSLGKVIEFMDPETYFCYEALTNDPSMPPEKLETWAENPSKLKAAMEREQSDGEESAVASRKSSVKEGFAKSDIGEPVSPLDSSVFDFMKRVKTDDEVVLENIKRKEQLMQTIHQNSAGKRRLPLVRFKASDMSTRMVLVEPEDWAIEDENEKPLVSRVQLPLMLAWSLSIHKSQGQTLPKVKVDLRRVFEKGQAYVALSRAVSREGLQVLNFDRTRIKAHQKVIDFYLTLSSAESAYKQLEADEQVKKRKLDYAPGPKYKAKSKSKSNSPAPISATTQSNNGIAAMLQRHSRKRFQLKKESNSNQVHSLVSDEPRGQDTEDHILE

B1: 40-nt ssDNA (ssDNA)
DNA: GCTAGCAGTAGCCAGCATCGAACGTACGATCGGTAACGTA
GFP-Pif1 E724A
  Kd: 19 nM
GFP-Pif1 L310A
  Kd: 27.8 nM
Pif1 WT (GFP-Pif1)
  Kd: 12.6 ± 3.81 nM
